Measurements from paper PMC4233170.

Target: FLAG-tagged Rrn3 purified from infected Sf9 cells (not stated (human or mouse cDNA cloned)) (UniProt Q9NYV6)
Sequence of UniProt Q9NYV6 (Q9NYV6 whole entry): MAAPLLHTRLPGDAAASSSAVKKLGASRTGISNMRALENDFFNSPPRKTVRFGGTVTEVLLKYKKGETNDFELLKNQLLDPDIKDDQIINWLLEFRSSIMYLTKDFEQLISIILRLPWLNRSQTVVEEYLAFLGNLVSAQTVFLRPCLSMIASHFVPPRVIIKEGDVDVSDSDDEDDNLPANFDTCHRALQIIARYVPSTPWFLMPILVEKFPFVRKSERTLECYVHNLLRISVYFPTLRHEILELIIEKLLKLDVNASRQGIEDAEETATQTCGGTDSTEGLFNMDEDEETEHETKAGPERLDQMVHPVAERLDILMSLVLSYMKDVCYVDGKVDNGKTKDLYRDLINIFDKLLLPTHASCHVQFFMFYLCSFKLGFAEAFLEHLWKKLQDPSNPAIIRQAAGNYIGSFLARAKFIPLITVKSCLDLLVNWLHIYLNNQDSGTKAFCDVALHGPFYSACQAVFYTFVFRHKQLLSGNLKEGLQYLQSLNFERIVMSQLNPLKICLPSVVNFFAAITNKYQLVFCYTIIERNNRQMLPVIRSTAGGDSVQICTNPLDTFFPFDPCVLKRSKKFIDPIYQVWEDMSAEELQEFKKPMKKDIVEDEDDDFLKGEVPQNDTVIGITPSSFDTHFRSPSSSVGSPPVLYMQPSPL

GGGRKKRRQRRRNKVSSSHIGCLVHGCFNASIPK [TAT-22mer: HIV TAT based cell penetrating peptide coupled to the 22mer of rpa43]
labelling of the 47/45S pre-rRNA precursor in N1S1 cells treated with TAT-22mer: 70 % inhibition
